Tests used:
Assay type in all cases: in vitro ADME
[1] = substrate: O=C(O)Cc1cc(=O)oc2c(O)c(O)ccc12; assay: Methylation kinetics in pooled human liver cytosol (HLC); settings: other: HLC 0.5 mg/ml, substrate 0.1–40 µM, 5 min; best-fit value ± s.e.; pH 7.4
Method: (§1) Reaction mixtures were pre-incubated at 37°C for 5 min and initiated by the addition of SAM to a final concentration of 0.4 mM. The samples were incubated for a certain period of time and the reaction was terminated by the addition of 200 µl ice-cold acetonitrile and then centrifuged at 20 000g, 4°C, for 20 min. Control incubations were performed either without human liver cytosol, or without SAM or without substrate. The supernatants were subjected to ultra-fast liquid chromatography (UFLC) coupled with a diode array detector (DAD) and an electrospray ionization (ESI) mass spectrometer (MS) analyzer.
(§2) 7,8-DHCs and their methylated conjugates were analysed by a UFLC spectrometry system (Shimadzu, Kyoto, Japan), equipped with two LC-20AD pumps, a DGU-20A3 vacuum degasser, a SIL-20ACHT auto-sampler, a CTO-20AC column oven, an SPD-M 20A DAD, a CBM-20A communications bus module, a mass detector (2010EV) with an ESI interface and a computer equipped with UFLC-MS SOLUTION v. 3.41 software. A Shimadzu ODS (75.0 × 2.0 mm, 3 µm) analytical column was used to separate 7,8-DHCs and their methylated conjugates. Column temperature was kept at 40°C. […] The methylation samples were stable over 72 h at 4°C. 7,8-DHC methylation was quantified by the standard curves of the methylated conjugates at the detector wavelength of 325 nm, which were linear from 0.01 to 10 µM (the correlation coefficient was 0.999).
(§3) For estimating kinetic parameters, 7,8-DHCs (0.1–40 µM) were incubated with pooled HLC and S-COMT. 7,8-DHCs (0.1–40 µM) were incubated with HLC or S-COMT for 5 min, using a microsomal protein concentration of 0.5 mg ml^−1 or 0.002 mg ml^−1 for HLC and S-COMT, respectively. Kinetic constants for 7,8-DHCs methylation by HLC and S-COMT were obtained by fitting the Michaelis–Menten kinetics equation (3.1) to experimental data.
(§4) For the Michaelis–Menten kinetic model, 3.1 v=Vmax×[S]/Km+[S], where v is the rate of reaction, [S] is the substrate concentration, Vmax is the maximum velocity estimate and Km is the apparent affinity constant.
(§5) All incubations were performed in duplicate. Kinetic constants were obtained using GraphPad PRISM 6 (GraphPad Software, Inc. La Jolla, CA) software.

[2] = substrate: O=c1cc(-c2ccccc2)c2ccc(O)c(O)c2o1; assay: as above; settings: other: HLC 0.5 mg/ml, substrate 0.1–40 µM, 5 min; best-fit value ± s.e.; pH 7.4
Method: as §1, §2, §3, §4, §5

[3] = substrate: O=c1ccc2ccc(O)c(O)c2o1; assay: as above; settings: other: HLC 0.5 mg/ml, substrate 0.1–40 µM, 5 min; best-fit value ± s.e.; pH 7.4
Method: as §1, §2, §3, §4, §5

[4] = substrate: Cc1cc(=O)oc2c(O)c(O)ccc12; assay: as above; settings: other: HLC 0.5 mg/ml, substrate 0.1–40 µM, 5 min; best-fit value ± s.e.; pH 7.4
Method: as §1, §2, §3, §4, §5

[5] = substrate: O=C(O)Cc1cc(=O)oc2c(O)c(O)ccc12; assay: Methylation kinetics with recombinant human soluble COMT; settings: other: S-COMT 0.002 mg/ml, substrate 0.1–40 µM, 5 min; best-fit value ± s.e.; pH 7.4
Method: as §1, §2, §3, §4, §5

[6] = substrate: O=c1cc(-c2ccccc2)c2ccc(O)c(O)c2o1; assay: as above; settings: other: S-COMT 0.002 mg/ml, substrate 0.1–40 µM, 5 min; best-fit value ± s.e.; pH 7.4
Method: as §1, §2, §3, §4, §5

[7] = substrate: O=c1ccc2ccc(O)c(O)c2o1; assay: as above; settings: other: S-COMT 0.002 mg/ml, substrate 0.1–40 µM, 5 min; best-fit value ± s.e.; pH 7.4
Method: as §1, §2, §3, §4, §5

[8] = substrate: Cc1cc(=O)oc2c(O)c(O)ccc12; assay: as above; settings: other: S-COMT 0.002 mg/ml, substrate 0.1–40 µM, 5 min; best-fit value ± s.e.; pH 7.4
Method: as §1, §2, §3, §4, §5

Protein | Km [1] [µM] | Km [2] [µM] | Km [3] [µM] | Km [4] [µM] | Km [5] [µM] | Km [6] [µM] | Km [7] [µM] | Km [8] [µM]
COMT in HLC (Homo sapiens) (protein, Pooled human liver cytosol (HLC) from seven male donors; tissue Research Institute for Liver Diseases (Shanghai, China) Lot; QROX; host or cells: pooled human liver cytosol, seven male donors) MGDTKEQRILNHVLQHAEPGNAQSVLEAIDTYCEQKEWAMNVGDKKGKIVDAVIQEHQPSVLLELGAYCGYSAVRMARLLSPGARLITIEINPDCAAITQRMVDFAGVKDKVTLVVGASQDIIPQLKKKYDVDTLDMVFLDHWKDRYLPDTLLLEECGLLRKGTVLLADNVICPGAPDFLAHVRGSSCFECTHYQSFLEYREVVDGLEKAIYKGPGSEAGP | 7.52 ± 0.64 | 0.089 ± 0.015 | 0.21 ± 0.036 | 0.20 ± 0.029 |  |  |  | 
recombinant human soluble COMT (S-COMT) (Homo sapiens) (protein, made in house) MGDTKEQRILNHVLQHAEPGNAQSVLEAIDTYCEQKEWAMNVGDKKGKIVDAVIQEHQPSVLLELGAYCGYSAVRMARLLSPGARLITIEINPDCAAITQRMVDFAGVKDKVTLVVGASQDIIPQLKKKYDVDTLDMVFLDHWKDRYLPDTLLLEECGLLRKGTVLLADNVICPGAPDFLAHVRGSSCFECTHYQSFLEYREVVDGLEKAIYKGPGSEAGP |  |  |  |  | 7.93 ± 1.31 | 0.22 ± 0.034 | 0.48 ± 0.071 | 1.07 ± 0.10
